Measurements reported in article PMC6265731.

Tests used:
Assay in all cases: affinity purification with mass spectrometry
[1] = biological target: WT PLRV (assembled virions and/or soluble structural proteins CP and RTP, as captured by the α-PLRV antibody) (Potato leafroll virus)
[2] = biological target: ΔRTC PLRV (virions and soluble structural proteins of the mutant whose RTD lacks the last 218 C-terminal residues) (Potato leafroll virus)
[3] = biological target: non-incorporated (soluble) form of the PLRV readthrough protein expressed by the ΔCP mutant (Potato leafroll virus)

## Potato leafroll virus P3a protein (from UniProt P0DTK2 1-45) (natural protein)
[1]
  fold decrease of P3a (normalised to CP) in ΔP17 APs against WT APs: 3.4 fold

B1: Potato leafroll virus P1 polyprotein (natural protein)
chain: KEAGFLHPAFNFRGTSTMSASSGDYSAAPTPLYKSWALPSSLNLTTQPPPPLTDRSYYELVQALTSKMRLDCQTVGDMTWRHLSEMLFASWNSVKEVSLKAASVTLWAIINIWFGLYWTLARLITLFLWTFSIEALCLILLGCITSLIYKGALSLSEHLPVFLFMSPLKIIWRAAFSKRNYKNERAVEGYKGFSVPQKPPKSAVIELQHENGSHLGYANCIRLYSGENALVTAEHCLEGAFATSLKTGNRIPMSTFFPIFKSARNDISILVGPPNWEGLLSVKGAHFITADKIGKGPASFYTLEKGEWMCHSATIDGAHHQFVSVLCNTGPGYSGTGFWSSKNLLGVLKGFPLEEECNYNVMSVIPSIPGITSPNYVFESTAVKGRVFSDEAVKELEREASEAVKKLARFKSLTDKNWADDYDSDEDYGLEREAATNAPAEKTAQTNSAEKTAPSTSAEKTALTNKPLNGQAAPSAKTNGNSDIPDAATSAPPMDKMVEQIITAMVGRINLSEIEEKIVSRVSQKALQKPKQKKRGRRGGKNKQNSLPPTSTQSTSGAPKKEAAPQASGSAGTSRATTTPAPEAKPSGGKNSAKFTPSWRIKQQDSAGQKPDLKLNSKA
[2]
  fold increase of P1 (normalised to CP) in ΔRTC APs against WT APs: 1.8 fold

B2: Potato leafroll virus P17 movement protein (natural protein)
chain: MSMVVYNNQECEEGNPFAGALTEFSQWLWSRPLGNPGAEDAEEEAIAAQEELEFPEDEAQARHSCLQRTTSWATPKEVSPSGRVYQTVRHSRMEYSRPTMSIRSQASYFSSSARPLPPPPVPSLMSWTPIAKYHPSSPTSTSSKLRRAAPKLIKRG
[3]
  fold increase of P17 (normalised to CP) in ΔCP APs against WT APs: 1.8 fold
